From the RNAGym collection of RNA variant scans (doi:10.1021/acssynbio.7b00057)

B1: Pistol ribozyme (parent)
chain: GGGUCGUUGUUCCAUAAUCGCGUGGAUAUGGCACGCAAGUUUCUACCGGGCACCGUAAAUGUCCGACUGGAGCCGUUCGGGCGGCUAUAAACAGACCUCAGGCCCGAAGCGUGGCGGCACCUGCCGCCGGUGGUAAAAAAGAUCGGAAGAGCACACGUCU

Variants of: B1
Test: aptazyme ON/OFF ratio, guanine; higher = stronger switching; co-transcriptional cleavage with and without guanine

Variant | aptazyme ON/OFF ratio
U7G U8A G9C U10G C12G C13U | 1.18
U7G U8A G9C U10G C12G C13A | 1.06
U7G U8A G9C U10G U11A C12G C13A | 1.01
U7G U8A G9C U10G U11A C12G C13U | 1.07
U7G U8A G9C U10G U11A C12G C13G | 1.04
U7G U8A G9C U10G U11C C12A C13A | 1.07
U7G U8A G9C U10G U11C C12A C13G | 1.02
U7G U8A G9C U10G U11C C12A C13U | 1.05
U7G U8A G9C U10A U11G C12A C13U | 1.04
U7G U8A G9C U10A U11G C12A C13A | 1.05
U7G U8A G9C U10A U11G C12A C13G | 1.05
U7G U8A G9C U10A U11C C12U C13U | 1.04
U7G U8A G9C U10A U11C C12U C13A | 1.03
U7G U8A G9C U10A U11C C12U C13G | 1.06
U7G U8A G9C U10A U11C C12A C13U | 1.03
U7G U8A G9C U10A U11C C12A C13G | 1.01
U7G U8A G9C U10A U11C C12A C13A | 1.04
U7G U8A G9C U10A C12A C13U | 1.06
U7G U8A G9C U10A C12A C13A | 1.05
U7G U8A G9C U10A C12A C13G | 1.01
U7G U8A G9C U10A C12U C13G | 0.956
U7G U8A G9C U10A C12U C13A | 1.03
U7G U8A G9C U10A C12U C13U | 1.05
U7G U8A G9C U10G U11A C12A | 1

Variant | aptazyme ON/OFF ratio
U7G U8A G9C U10G U11A C12G | 1.06
U7G U8A G9C U10G U11A C12U | 1.02
U7G U8A G9C U10A U11C C13G | 1.04
U7G U8A G9C U10A U11C C13U | 1.04
U7G U8A G9C U10A U11C C13A | 1.04
U7G U8A G9C U10G U11G C12G C13U | 1.01
U7G U8A G9C U10G U11G C12G C13A | 1.05
U7G U8A G9C U10G U11G C12G C13G | 1.05
U7G U8A G9A U10G C13U | 1.35
U7G U8A G9A U10G C13G | 1.2
U7G U8A G9A U10G C13A | 1.08
U7G U8A G9C U10A U11G C12G C13A | 1.05
U7G U8A G9C U10A U11G C12G C13U | 1.04
U7G U8A G9C U10A U11G C12G C13G | 1.03
U7G U8A G9A U10G U11A C12A | 1.12
U7G U8A G9A U10G U11A C12G | 1.11
U7G U8A G9A U10G U11A C12U | 0.997
U7G U8A G9A U10G U11G C13G | 1.34
U7G U8A G9A U10G U11G C13U | 1.26
U7G U8A G9A U10G U11G C13A | 1.29
U7G U8A G9C U11C C12A | 1.11
U7G U8A G9C U11C C12G | 1.05
U7G U8A G9C U10A U11A C12G C13U | 1.02
U7G U8A G9C U10A U11A C12G C13G | 1.01

Variant | aptazyme ON/OFF ratio
U7G U8A G9C U10A U11A C12G C13A | 1.04
U7G U8A G9A U11G C12G C13U | 1.1
U7G U8A G9A U11G C12G C13A | 1.14
U7G U8A G9A U11G C12G C13G | 1.14
U7G U8A G9C U10C U11A C12U | 1.07
U7G U8A G9C U10C U11A C12A | 1.03
U7G U8A G9C U10C U11A C12G | 1.05
U7G U8A G9C U10C C13A | 1.01
U7G U8A G9C U10C C13G | 1.01
U7G U8A G9C U10C C13U | 1.04
U7G U8A G9A U11C C12G C13U | 1.1
U7G U8A G9A U11C C12G C13G | 1.04
U7G U8A G9A U11C C12G C13A | 1.08
U7G U8A G9C U10A U11G C12U C13A | 1.02
U7G U8A G9C U10A U11G C12U C13G | 1.01
U7G U8A G9C U10A U11G C12U C13U | 1.04
U7G U8A G9C U10G U11A C12U C13G | 1.06
U7G U8A G9C U10G U11A C12U C13U | 1.03
U7G U8A G9C U10G U11A C12U C13A | 1.03
U7G U8A G9C U10C U11G C12U | 1.12
U7G U8A G9C U10C U11G C12G | 1.03
U7G U8A G9C U10C U11G C12A | 1.08
U7G U8A G9A U11A C12G | 1.24
U7G U8A G9A U11A C12A | 1.27

Variant | aptazyme ON/OFF ratio
U7G U8A G9A U11A C12U | 1.25
U7G U8A G9C U10G U11G C12A C13A | 1.05
U7G U8A G9C U10G U11G C12A C13G | 1.03
U7G U8A G9C U10G U11G C12A C13U | 1.03
U7G U8A G9C U10A C12U | 1.03
U7G U8A G9C U10A C12A | 1.03
U7G U8A G9C U10A C12G | 1.01
U7G U8A G9C U10C C12A C13G | 1.03
U7G U8A G9C U10C C12A C13A | 1.07
U7G U8A G9C U10C C12A C13U | 1.01
U7G U8A G9A U11G C13G | 1.03
U7G U8A G9A U11G C13A | 1.13
U7G U8A G9A U11G C13U | 1.21
U7G U8A G9A U11C C12A C13A | 1.19
U7G U8A G9A U11C C12A C13G | 1.12
U7G U8A G9A U11C C12A C13U | 1.1
U7G U8A G9C U11A C12G | 1.04
U7G U8A G9C U11A C12U | 1.03
U7G U8A G9C U11A C12A | 1.03
U7G U8A G9C C13G | 1.02
U7G U8A G9C C13U | 1.04
U7G U8A G9C C13A | 1.04
U7G U8A G9A U10G U11C C13U | 1.05
U7G U8A G9A U10G U11C C13G | 1.08

Variant | aptazyme ON/OFF ratio
U7G U8A G9A U10G U11C C13A | 1.09
U7G U8A G9C U10A U11G C13U | 1.02
U7G U8A G9C U10A U11G C13G | 1.05
U7G U8A G9C U10A U11G C13A | 1.02
U7G U8A G9A U10G U11C C12A C13U | 1.14
U7G U8A G9A U10G U11C C12A C13G | 1.09
U7G U8A G9A U10G U11C C12A C13A | 1.1
U7G U8A G9C U10C U11G C13U | 1.03
U7G U8A G9C U10C U11G C13A | 1.04
U7G U8A G9C U10C U11G C13G | 1.03
U7G U8A G9C U10C U11A C12G C13G | 1.05
U7G U8A G9C U10C U11A C12G C13A | 1.03
U7G U8A G9C U10C U11A C12G C13U | 1.09
U7G U8A G9C U11C | 1.05
U7G U8A G9C U11A | 1.14
U7G U8A G9C U10C U11G C12U C13A | 1.05
U7G U8A G9C U10C U11G C12U C13U | 1.04
U7G U8A G9C U10C U11G C12U C13G | 1.03
U7G U8A G9C U10G C12A C13G | 1.03
U7G U8A G9C U10G C12A C13A | 1.06
U7G U8A G9C U10G C12A C13U | 1.05
U7G U8A G9C U10G U11A C13G | 1.02
U7G U8A G9C U10G U11A C13U | 1.03
U7G U8A G9C U10G U11A C13A | 1.05

Variant | aptazyme ON/OFF ratio
U7G U8A G9C U10G C12U C13U | 1.06
U7G U8A G9C U10G C12U C13A | 1.06
U7G U8A G9C U10G C12U C13G | 1.03
U7G U8A G9A U10G C12U C13U | 1.13
U7G U8A G9A U10G C12U C13G | 1.35
U7G U8A G9C U11A C12G C13G | 1
U7G U8A G9C U11A C12G C13U | 1.04
U7G U8A G9C U11A C12G C13A | 1.04
U7G U8A G9C U11C C12G C13A | 1.02
U7G U8A G9C U11C C12G C13G | 1.03
U7G U8A G9C U11C C12G C13U | 1.04
U7G U8A G9A U10G U11A C13G | 1.06
U7G U8A G9A U10G U11A C13A | 1.06
U7G U8A G9A U10G U11A C13U | 1.03
U7G U8A G9A U11G C12U | 1.44
U7G U8A G9A U11G C12A | 1.08
U7G U8A G9A U11G C12G | 1.41
U7G U8A G9C C12G C13A | 1.02
U7G U8A G9C C12G C13U | 1.06
U7G U8A G9C C12G C13G | 1.04
U7G U8A G9A U10G U11G C12A | 1.14
U7G U8A G9A U10G U11G C12U | 1.48
U7G U8A G9A U10G U11G C12G | 1.24
U7G U8A G9A U10G U11A C12U C13G | 1.06

Variant | aptazyme ON/OFF ratio
U7G U8A G9A U10G U11A C12U C13U | 1.09
U7G U8A G9A U10G U11A C12U C13A | 1.18
U7G U8A G9C U10G U11C C12G C13A | 1.03
U7G U8A G9C U10G U11C C12G C13U | 1.03
U7G U8A G9C U10G U11C C12G C13G | 1.03
U7G U8A G9C U10C U11C C13G | 1.01
U7G U8A G9C U10C U11C C13A | 1.03
U7G U8A G9C U10C U11C C13U | 1.03
U7G U8A G9C U10A U11A C12A C13G | 1.03
U7G U8A G9C U10A U11A C12A C13A | 1.04
U7G U8A G9C U10A U11A C12A C13U | 1.02
U7G U8A G9C U10C U11A C13A | 1.1
U7G U8A G9C U10C U11A C13G | 1.06
U7G U8A G9C U10C U11A C13U | 1.1
U7G U8A G9C C12U | 1.04
U7G U8A G9C C12G | 1.01
U7G U8A G9C C12A | 1.02
U7G U8A G9C U10G U11G C12A | 1.08
U7G U8A G9C U10G U11G C12G | 1.06
U7G U8A G9C U10G U11G C12U | 1.32
U7G U8A G9A U10G U11C C12A | 1.13
U7G U8A G9A U10G U11C C12G | 1.17
U7G U8A G9A U10G U11C C12U | 1.09
